Target: DSV^4 VLPs (Dengue virus serotypes 1-4; Hepatitis B virus; Hepatitis B virus)
Assay: sandwich ELISA: mAb coated, DSV^4 VLPs added, detected with peroxidase labelled anti-HBsAg

Substance | ELISA OD [OD]
3H5 (antibody) | 0.77
4G2 (antibody) | 0.05

— patent US10189877
